The record followed here is the DeepSol protein solubility set.

The nature of the data set: soluble on expression in E. coli; label from the status in PepcDB or PDB records.
On to “MVLVLAEIITVGDELLTGNTVDSNSAYIAQRLTEKGFWVRRITTVGDDVKEIENAVREAISRKPEVLIISGGLGPTHDDVTMLGVANAIGRKLKLCEDCLERIKEFYEELHRKGLIDDPTLNEARKKMAYLPEGSEPLNNTEGAAPGAYVEYEGVKIFILPGMPREMKAMLESEVLPRLGERKFVQKKFLAEITDESKLAPILEDTIERFKVKIHSSPKGFGKYIGIIIFAEDDEVIGKVIRYIEGKGIKFREGW”, for which the “soluble on expression in E. coli” value is “soluble”.
As for “MVNAEEQQYLNLVQYIINHGEDRPDRTGTGTLSVFAPSPLKFSLRNKTFPLLTTKRVFIRGVIEELLWFIRGETDSLKLREKNIHIWDANGSREYLDSIGLTKRQEGDLGPIYGFQWRHFGAEYIDCKTNYIGQGVDQLANIIQKIRTSPYDRRLILSAWNPADLEKMALPPCHMFCQFYVHIPSNNHRPELSCQLYQRSCDMGLGVPFNIASYALLTCMIAHVCDLDPGDFIHVMGDCHIYKDHIEALQQQLTRSPRPFPTLSLNRSITDIEDFTLDDFNIQNYHPYETIKMKMSI”, the “soluble on expression in E. coli” value is on record as “soluble”.
For “MVNEYKRIVLLRGLECINKHYFSLFKSLLARDLNLERDNQEQYTTIQIANMMEEKFPADSGLGKLIEFCEEVPALRKRAEILKKERSEGETSLEKNGQEAGPATPTSTTSHMLASERGETSATQEETSTAQAGTSTAQAGTSTAQAGTSTA” the value was “soluble”; for “MVNIPNFIDKVLSVNDTSNASLTHCIKEADIDGVIEECKDILSAQATMVEVQAPIAVCGDIHGQYTDLLRIFNRCSFPPDQNYLFLGDYVDRGRQQLEVICLLMAYKVRYPNGFFILRGNHECASINRTYGFYDECKRRYSLALYNEFQNLFNSLPLCAMISGRIFCMHGGLSPELVSWTQLAKIIRPFDPPNACLAMDLLWADPENNHTGWGKNSRGVSYIFGANVVKDFTEKMNIDLIARGHQVVQDGYEFFADKRLVTIFSAPKYCGEFDNNAGIMIVDERLIISFEILKPAMREVKIQARAAAKNKSTRSILVSSRGPKSKKG”, “not soluble”.
For “MVNKMDIIPEITRKSITDLINNKERIDGRSLHEFRDISIETGVISKAEGSSRVKLGNTQIIVGVKPQIGEPFPDTPEMGVILTNSELLPMASPTFEPGPPDERSVELSRVVDRCIRESRMIDLEKLCIIEGSKVWMLFLDLHIIDYDGNLFDAAVLATVAALLDTRIPAAEVEDGEVVINREKMQPLPVNRKALMCTFAKIGNEIVLDPSLEEEDILTARISIGVTEEGSICAMQKGGEGPLTRDDVLKAVSIAVEKVPQLIEYLDKSMTP” the value was “soluble”.
For “MVNKVLVANRGEIAVRIIRACKELGIPTVAIYNEVESTARHVKLADEAYMIGTDPLDTYLNKQRIINLALEVGADAIHPGYGFLAENAEFAKMCEEAGITFIGPHWKVIELMGDKARSKEVMKKAGVPVVPGSDGVLKSLEEAKALAREIGYPVLLKATAGGGGRGIRICRNEEELVKNYEQASREAEKAFGRGDLLLEKFIENPKHIEYQVLGDKHGNVIHLGERDCSIQRRNQKLVEIAPSLILTPEKREYYGNIVTKAAKEIGYYNAGTMEFIADQEGNLYFIEMNTRIQVEHPVSEMVTGIDIVKWQIKIAAGEPLTIKQEDVKFNGYAIECRINAEDPKKNFAPSTRVIERYYVPGGFGIRVEHAAARGFEVTPYYDSMIAKLITWAPTWDEAVERMRAALETYEITGVKTTIPLLINIMKEKDFKAGKFTTKYLEEHPEVFEYEE” the value was “soluble”; for “MVNLANVLTNATAATLSAWSNTVPLETYFHFDEASGFGDYYLNVSVIWMNETLYETRIVPAIINVREWLDHMEANDPSPSVTNPYETSGYYAFSTVVPVLMGNMKVA”, “not soluble”; for “MVPLESSTLFGVYGGFTDSMMMRETTTNNQDPSGDTCSVSDPAPGSTDYYNISSSPVKDDGTAPKNDVVCSINVDDNKDKSWLRLGIGPEENTDGSYKLQRCCSKNGSGRENSLELSLFSSSSTAVSSSIDHLPTQPLQLPYHHDQLLTMRGPSLVYNHQLMKPQTLLNRGFSFPSSKPWIPQYMAPFRPSSLSDRDVTNNNSLSRSCCVDEGGAGPSSEFRVLDPPRRPHSGLWFLLQASQFQ”, “soluble”.
For the sequence “MVPLTEENVESVLDEIRPYLMSDGGNVALHEIDGNVVRVKLQGACGSCPSSTMTMKMGIERRLMEKIPEIVAVEALPDEETGLELNEENIEKVLEEIRPYLIGTADGSLDLVEIEDPIVKIRITGPAAGVMTVRVAVTQKLREKIPSIAAVQLI”, the “soluble on expression in E. coli” value is listed as “soluble”.
Turning to “MVPPITSDEFCETSGCFGDSANLHTTLERLKININSDAKKLVDTNGDLKKHQRFLRIAKVTSLRSKDPNTQVGCVIVDKDNCIVSVGYNGFPIGVDDDVFRWDKEDPEDNKHLYVVHAEMNAIINKRCTTLHDCTVYVTLFPCNKCAQMLIQSRVKKVYFLENRDELAFRASKKMLDHARLPYEQIVMPQEAYVIEL”, the “soluble on expression in E. coli” value is “not soluble”.
For “MVQAEGLTKRYRKAVAVEGLTFGVGPGEVYALLGPNGAGKTTTLRLLSTLVRPSAGRALVAGFDVVREPLEVRRNLGLVNGGMRVYERLTGREVLEFFAGFYGLKGRAFLGALDWVVDLLEMEETLDKKVGEMSTGMRQKVVIARAILHRPKVLLLDEATAGLDIFARRALLDFVKAYRDLGHAVIYSTHVMGEAEEVADRVGFLHRGRLVYEGSKEEALALGEGSLERAFVRQVRGA” the value was “soluble”.
For “MVQALPSNIGIQQVTLKVADLDKMVNFYTKTIGLKLLKQGEGRAWLAPQGTNDAILVLKELTAGEENQGTTGLYHIAFLLPTRKDLGNMLLWLLQENVQIGAADHGYSEALYLSDPENNGIEIYWDKPEEVWDIRPNGEIIGVTEELDGDSLAAEADGHWLGISEGSKIGHIHLKVADLDATETFYKNLGFGLKSNFGQQAKFFAAGQYHHHIGTNTWSGKQLPTIQENQFGLENYTFRLPTAADLEIVQANAEEAKLHFIAKDHLLALEDPSGMIIQFTY” the value was “not soluble”; for “MVQEANVRDKMRGTGVSVTRSGDNIILNMPNNVTFDSSSATLKPAGANTLTGVAMVLKEYPKTAVNVIGYTDSTGGHDLNMRLSQQRADSVASALITQGVDASRIRTQGLGPANPIASNSTAEGKAQNRRVEITLSPLLEHHHHHH”, “not soluble”.
Take “MVQIIFDSKTGNVQRFVNKTGFQQIRKVDEMDHVDTPFVLVTYTTNFGQVPASTQSFLEKYAHLLLGVAASGNKVWGDNFAKSADTISRQYQVPILHKFELSGTSKDVELFTQEVERVVTKSSAKMDPVK”: the “soluble on expression in E. coli” value was “soluble”.
Regarding “MVQRVTIAPQGPEFSRFVMGYWRLMDWNMSARQLVSFIEEHLDLGVTTVDHADIYGGYQCEAAFGEALTLAPHLREKLQIVTKCGIATTARAENKLGHYITDRRHIILSAEQSLKNLATDYLDMLLIHRPDPLMDADDVAEAFQHLHQSGKVRHFGVSNFTPAQFTLLQSRLPFTLATNQVEISPVHQPLLLDGTLDQLQQLRIRPMAWSCLGGGRLFNDEAYQPLRQELSVIAQELNASSIEQVVYAWILRLPSQPLPIIGSGKIERVRAALEAETLSLTRQQWFRIRKAALGYDVP”, the “soluble on expression in E. coli” value is listed as “not soluble”.
For “MVRRLTSPRLEFEAAAIYEYPEHLHSFLNDLPTRPGVYLFHGESDTMPLYIGKSVNIRSRVLSHLRTPDEAAMLRQSRRISWICTAGEIGALLLEARLIKEQQPLFNKRLRRNRQLCALQLNEKRVDVVYAKEVDFSRAPNLFGLFANRRAALQALQSIADEQKLCYGLLGLEPLSRGRACFRSALKRCAGACCGKESHEEHALRLRQSLERLRVVCWPWQGAVALKEQHPEMTQYHIIQNWLWLGAVNSLEEATTLIRTPAGFDHDGYKILCKPLLSGNYEITELDPANDQRAS” the value was “not soluble”; for “MVRVIIKGGVWKNTEDEILKAAIMKYGKNQWSRIASLLHRKSAKQCKARWFEWLDPGIKKTEWSREEDEKLLHLAKLMPTQWRTIAPIVGRTSAQCLERYEHLLDEAQRKAEGLDEEATETRKLKPGEIDPTPETKPARPDPIDMDDDELEMLSEARARLANTQGKKAKRKARERQLSDARRLASLQKRREMRAAGLAFARKFKPKRNQIDYSEEIPFEKHVPAGFHNPSEDRYVVEDANQKAIEDHQKPRGREIEMEMRREDREKLKKRKEQGEADAVFNIKEKKRSKLVLPEPQISDRELEQIVKIGHASDSVRQYIDGTATSGLLTDYTESARANAVAARTMRTPMLKDTVQLELENLMALQNTESALKGGLNTPLHESELGKGVLPTPKVAATPNTVLHAIAATPGTQSQFPGSTPGGFATPAGSVAATPFRDQMRINEEIAGSALEQKASLKRALASLPTPKNDFEVVGPDDDEVEGAVEDESNQDEDGWIEDASERAENKAKRNAENRVRNMKMRSQVIQRSLPKPTKVNEQATRATNSSADDMVKAEMSKLLAWDVDNKPPSVIYSREELDAAADLIKQEAESGPELNSLMWKVVEQCTSEIILSKDKFTRIAILPREEQMKALNDEFQMYRGWMNQRAKRAAKVEKKLRVKLGGYQAIHDKLCKKYQEVTTEIEMANIEKKTFERLGEHELKAINKRVGRLQQEVTTQETREKDLQKMYSKLSNKQWKLSQIEIHDAASTTSAPITY”, “not soluble”.
For “MVRVRPSCQVAQSDCGLACVHMLIQSFGISASLRKMRVTYAPGRDGLSLRALTQILSDFGLNSKVVKCSYSNLSRVPLPAIIAWEPAHYVVLEKRLGDSWRIVDPSSGRRWCSKKEIEANFRSFCVTGARGNTKVSEGQVSDDPSWKSLAVLLAGK” the value was “not soluble”; for “MVRVYIGRLPNRASDRDVEHFFRGYGKLSDVIMKNGFGFVDFQDQRDADDAVHDLNGKELCGERVILEFPRRKVGYNEERSGSGFRGREPTFRKGGERQFSNRYSRPCSTRFRLVIDNLSTRYSWQDIKDHIRKLGIEPTYSEAHKRNVNQAIVCFTSHDDLRDAMNKLQGEDLNGRKLKCTDETRDRSRSRSPRRRSRSRSPTRSRSPPARRRSPGSDRSDRKSRSASPKKRSDKRARSESKSRSRSGGRRSRSNSPPNRSPSPKKRRDNSSPRSGSASP”, “not soluble”; for “MVSEMLSEAGHSVSYLKGGMKAWSEHLEPVKVGDLKDGGEMYQFVRIGKGCLSYMVISNGEAAIIDATRMVNFFIDFAKGKGATITHVFDTHLHADHISGGRVIAEKTKATYWLPPKDAEEVEFDYQPLEEGNDIIIGNTTIKIQPIYSPGHTIGSTSFIVDDQYLLSGDILFIDSIGRPDLAGMAEDWVGDLRKTLYSRYKALSKDLIVLPAHFMIIDELNENGSVGKQLSTLFSENHGLNIADETEFRHLVTDHLPPQPNAYQEIRETNMGKISPDEEKQREMEIGPNRCAIRLEHHHHHH”, “not soluble”.
For “MVSRLSTGILDFDKLIQGGIPQGFFIALTGEPGTGKTIFSLHFIAKGLRDGDPCIYVTTEESRDSIIRQAKQFNWDFEEYIEKKLIIIDALMKEKEDQWSLVNLTPEELVNKVIEAKQKLGYGKARLVIDSVSALFLDKPAMARKISYYLKRVLNKWNFTIYATSQYAITTSQAFGFGVEHVADGIIRFRRMIRNGELHRYILIEKMRQTDHDKHVWEIDIVNGKGIVLKGRLEE” the value was “soluble”.
Take “MVSSLLMSFAPATVRVYATSTKGGSGGPKEEKNPIDFVLGFMTKQDQFYETNPLLKKVDEKEGTTTGGRGTVRGGKNSAPTPVPKKSEGGFGGLGSLFKK”: the “soluble on expression in E. coli” value was “not soluble”.
With “MVSYKLTYFNGRGAGEVSRQIFAYAGQQYEDNRVTQEQWPALKETCAAPFGQLPFLEVDGKKLAQSHAIARFLAREFKLNGKTAWEEAQVNSLADQYKDYSSEARPYFYAVMGFGPGDVETLKKDIFLPAFEKFYGFLVNFLKASGSGFLVGDSLTWIDLAIAQHSADLIAKGGDFSKFPELKAHAEKIQAIPQIKKWIETRPVTPF”, the “soluble on expression in E. coli” value is “soluble”.
